This is an account of results in patent US20240368269A1 (Memorial Sloan Kettering, published 2024).

Numbering of substitutions follows the chain as printed.

This experiment has as its target T1, DLL3 (target in the Fab-Zap internalization assay) (UniProt Q9NYJ7 27-618, limits assumed).
T1 sequence (looked up): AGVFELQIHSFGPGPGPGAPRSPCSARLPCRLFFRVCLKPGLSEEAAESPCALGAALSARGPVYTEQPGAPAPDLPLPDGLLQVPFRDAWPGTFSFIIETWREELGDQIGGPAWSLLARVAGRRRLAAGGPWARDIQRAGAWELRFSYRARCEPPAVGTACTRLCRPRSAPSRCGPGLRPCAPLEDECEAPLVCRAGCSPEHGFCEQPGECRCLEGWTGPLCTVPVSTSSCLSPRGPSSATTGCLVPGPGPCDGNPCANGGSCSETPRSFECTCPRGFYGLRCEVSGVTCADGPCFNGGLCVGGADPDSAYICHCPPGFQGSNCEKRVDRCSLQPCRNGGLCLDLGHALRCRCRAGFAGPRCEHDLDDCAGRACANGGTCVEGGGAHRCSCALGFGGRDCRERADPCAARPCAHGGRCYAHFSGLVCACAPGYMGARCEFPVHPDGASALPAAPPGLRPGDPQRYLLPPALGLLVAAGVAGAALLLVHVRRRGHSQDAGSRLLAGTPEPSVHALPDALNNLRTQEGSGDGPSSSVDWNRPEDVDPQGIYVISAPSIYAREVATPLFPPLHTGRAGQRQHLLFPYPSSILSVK
Kind of experiment: cell-based or functional assay.

B1: E23 (antibody, V domains shown)
VH: QVQLVQSGAEVRKPGASVKVSCKASGYTFTGYYMHWVRQAPGQGLEWMGWINSYSGGANYAQKFQDRVTMTRDTSVSTASMELSRLRSDDTAVYYCARDGSGWYGSYFDFWGQGTLVTVSS
VL: DIVMTQTPLSSPVTLGQPASISCRSSQSLVHSDGNTYLSWLQQRPGQPPRLLIYKISNRFSGVPDRFSGSGAGTDFTLKISRVEAEDVGFYYCIQTTQFPLTFGGGTKVEIK
Turning to B1, the “Percent Max Killing (Fab-Zap internalization assay, 10 ug/ml)” value (from here on “Percent Max Killing”) was found to be 88.7%.

B2: I1 (antibody, V domains shown)
VH: EVQLVESGGGLVKPGGSLRLSCAASGFTFSNTWMSWVRQAPGKGLEWVGRIKSKSDGGTTDYAAPVKGRFTISRDDSKNTLYLQMNSLKTEDTAVYYCTQYYWNSFDYWGQGTLVTVSS
VL: not shown
Take B2: the “Percent Max Killing” value stood at 97%.

B3: B22 (antibody, V domains shown)
VH: EVQLVESGGGLVQPGGSLRLSCAASGFTFNNFWMSWVRQAPGKGLEWVANIKQDGSEKYYVDSVKGRFTISRDNAKNSLYLQMNSLRAEDTAVYYCARESYFDLWGRGTLVTVSS
VL: QAVVTQESALTTSPGETVTLTCRSSTGAVTTSNYANWVQEKPDHLFTGLIGGTNNRAPGVPARFSGSLIGDKAALTITGAQTEDEAIYFCALWYSNRWVFGGGTKLTVL
With B3, the “Percent Max Killing” value stood at 61.9%.

B4: P4 (antibody, V domains shown)
VH: EVQLVESGGGLVKPGGSLRLSCAASGFTFSFYSMNWVRQAPGKGLEWVSSISSSSSYIYYADSVKGRFTISRDNAKNSLYLQMNSLRAEDTAVYYCARNYDFWRGAFDIWGQGTMVTVSS
VL: not shown
In the case of B4, the “Percent Max Killing” value came out at 68%.

B5: F9 (antibody, V domains shown)
VH: QVQLVQSGAEVKKPGASVQVSCKASGYTFTSYYMHWVRQAPGQGLEWMGIINPSGGSTSYAQKFQGRVTMTRDTSTSTVYMELSSLRSEDTAVYYCARQGGAQWLVLAFDIWGQGTMVTVSS
VL: EIVLTQSPGTLSLSPGERATLSCRASQSVSSYLAWYQQKPGQPPRLLIYGASSRATGIPDRFSGGGSGTDFTLTISRLEPEDFAVYYCQQYDSSPYTFGQGTKLEIK
Consider B5, for which the “Percent Max Killing” value is 70%.

B6: G16 (antibody, V domains shown)
VH: B5 VH
VL: B5 VL with P43A, D92G
In the case of B6, the “Percent Max Killing” value was 46%.

B7: G3 (antibody, V domains shown)
VH: QVQLQESGPGLVKPSETLFLTCTVSGGSISSYYWTWIRQPAGKGLEWIGRIYTSGSTNYNPSLKSRVTMSVDTSKNQFSLKLSSVTAADTAVYYCAREDWESWTFDIWGQGTMVTVSS
VL: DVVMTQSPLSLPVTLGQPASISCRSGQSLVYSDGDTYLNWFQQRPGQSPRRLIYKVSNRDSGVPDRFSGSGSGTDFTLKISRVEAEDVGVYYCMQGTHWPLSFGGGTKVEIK
Consider B7, for which the “Percent Max Killing” value was found to be 86%.

B8: O18 (antibody, V domains shown)
VH: QVQLQESGPGLVKPSETLSLTCTVSGGSINSYYWSWIRQPPGKGLEWIGYIFYSGITNYNPSLKSRVTISLDTSKNQFSLKLSSVTAADTAVYYCARIGVAGFYFDYWGQGTLVTVSS
VL: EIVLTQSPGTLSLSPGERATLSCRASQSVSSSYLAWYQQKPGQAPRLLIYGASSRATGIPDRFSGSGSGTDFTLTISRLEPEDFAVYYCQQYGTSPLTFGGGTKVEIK
As for B8, the “Percent Max Killing” value was 88%.

B9: K19 (antibody, V domains shown)
VH: QVQLVQSGAEVKKPGASLKVSCKTSGYTFNSYYMHWVRQAPGQGLEWMGINNPSGGTTSYAQKFQGRVTMTRDTSTSTVYMELSSLRSEDTAVYYCARDWGEQYGMDVWGQGTTVTVSS
VL: not shown
Turning to B9, the “Percent Max Killing” value stood at 71%.

B10: N10 (antibody, V domains shown)
VH: QVQLVQSGAEVKKPGASVKVSCKASGYTFTGYYMHWVRQAPGQGLEWMGWINPHSGAPNSAQKFQVRVTMTRDTSISTAYMELSRLRSDDTAVYYCARDSSGWYGDAFDIWGQGTMVTVSS
VL: not shown
B10: the “Percent Max Killing” value worked out at 74%.

B11: C8 (antibody, V domains shown)
VH: EVQLVESGGGLVQPGGSQRLSCAASGFTFSSYWMNWVRQAPGKGLEWVANIKEDGSEKYYVDSVKGRFTISRDNAKNSLYLQMNSLRAEDTAVYYCARDPGWAPFDYWGQGTLVTVSS
VL: DIQMSQSPSSLSASVGDRVTITCRASQGISNYLAWFQQKPGKAPKSLIYAASSLQSGVPSKFSGSGSGTDFTLAISSLQPEDFATYYCQQYNSFPYTFGQGTTLEIK
For B11, the “Percent Max Killing” value was 89%.

B12: J8 (antibody, V domains shown)
VH: QVHLVQSGAEVKKPGASVKVSCKASGYTFTIYYIHWVRQAPGQGLEWMGIINPSGGSTSYAQKFQGRVTMTRDTSTSTVYMELSSLRSEDTAVYYCSGNDYVDYVTTDYYGMDVWGQGTTVTVSS
VL: B11 VL with S5T, A74T, F94S, T103K
Turning to B12, the “Percent Max Killing” value came to 64%.

B13: E9 (antibody, V domains shown)
VH: QVQLVQSGAEVKKPGASVKVSCKASGYTFTSYYMHWVRQAPGQGLEWMGVINSSGGSTSYAQKFQGRVTMTRDTSTSTVYMDLSSLRSEDTAVYYCARGYCTNGVYYDEDFDYWGQGTLVTVSS
VL: B11 VL with S5T, N31H, K45T, A74T, F94Y, Y96L, Q100G, T103K, L104V
On to B13, for which the “Percent Max Killing” value was determined as 61.4%.

B14: O24 (antibody, V domains shown)
VH: QVQLVQSGAEVKKPGASVKVSCKASGYTFTSYYLHWVRQAPGHGLEWMAIINPSGGSTSYAQKFLGRVTMTRDTSTNTVYMELSSLRSEDTAVYYCARERQQLDYYYFAMDVWGQGTTVTVSS
VL: B11 VL with S5T, A74T, F94Y, Y96P, T103K, L104V
Consider B14, for which the “Percent Max Killing” value was found to be 80.3%.

B15: A18 (antibody, V domains shown)
VH: QVTLRESGPALVKSTQTLTLTCTFSGFSLSTSGMCVSWIRQTPGKALEWLALIDWDDNKYYSTSLKTRLIISKDTSKNQVVLTMTNMEPVDTATYYCARIRGYSGSYDAFDIWGQGTMVTVSS
VL: DIVMTQSPLSLPVTPGEPASISCRSSQSLLHSNGYNYLDWYLQKPGQSPHILLYLGSNRAPGVPDRFSGSGSGTDFTLKISRVEAEDVGVYYCMQALQTPFTFGPGTKVDIK
Turning to B15, the “Percent Max Killing” value worked out at 67%.

B16: G23 (antibody, V domains shown)
VH: QVQLVQSGAEVKKPGASVKVSCKASGYTFTSYYIHWVRQAPGQGLEWMGIIDPSDGSTNYAQKFQGRVTMTRDTSTSTVYMELSSLRSEDTAVYYCARDREYNYYGLDVWGQGTTVTVSS
VL: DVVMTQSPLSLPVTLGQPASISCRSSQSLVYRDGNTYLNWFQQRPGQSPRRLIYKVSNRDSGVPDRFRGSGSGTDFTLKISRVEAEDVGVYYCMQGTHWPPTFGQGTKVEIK
Regarding B16, the “Percent Max Killing” value stood at 94%.

B17: D8 (antibody, V domains shown)
VH: QVQLVQSGAEVKKPGASVKVSCKASGYTFTTYYMHWVRQAPGQGLEWMGIINPSGGSTSYAQKFQGRVTMTRDTSTSTVYMELSSLRSEDTAVYYCARQGHYIGNYLDYWGQGTLVTVSS
VL: not shown
As to B17, the “Percent Max Killing” value is 68%.

B18: L12 (antibody, V domains shown)
VH: B17 VH with T31S, T58R, G100L, H101E, Y102L, I103L, Y106A, L107F, Y109I, L115M
VL: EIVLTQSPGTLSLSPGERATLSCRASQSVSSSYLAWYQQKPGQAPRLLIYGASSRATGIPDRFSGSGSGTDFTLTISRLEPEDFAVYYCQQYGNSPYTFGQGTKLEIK
Turning to B18, the “Percent Max Killing” value amounted to 61%.

B19: C22 (antibody, V domains shown)
VH: B17 VH with T31S, Q99V, G100A, H101D, Y102I, I103V, N105A, Y106T, L107F
VL: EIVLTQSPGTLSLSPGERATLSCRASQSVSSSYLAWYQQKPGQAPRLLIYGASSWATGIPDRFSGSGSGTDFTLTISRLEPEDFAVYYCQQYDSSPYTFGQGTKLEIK
With B19, the “Percent Max Killing” value turned out to be 69.1%.

B20: J23 (antibody, V domains shown)
VH: B17 VH with T31S, P53Y, T58K, A92G, H101R, I103S, N105S
VL: not shown
With B20, the “Percent Max Killing” value is 59.5%.

B21: M11 (antibody, V domains shown)
VH: QVQLVQSGAEVKKPGASVKVSCKASGYTFTSYYIHWVRQAPGQGLEWMGIINPSGGSKSYAQKFQGRVTMTRDTSTGTVYMELSSLRSEDTAVYYCAGQLELLGNAFDIWGQGTMVTVSS
VL: not shown
On to B21, for which the “Percent Max Killing” value turned out to be 65.2%.

B22: L22 (antibody, V domains shown)
VH: EVQLLESGGGLVQPGGSLRLSCAASGFTFSSYAMGWVRQTPGKGLEWVSTISGRGGDTYYADSVKGRFTISRDNSKNTLYLQMNSLRAEDTAIYYCAKERGLGFDYWGQGTLVTVSS
VL: DIVMTQTPLSLPVTPGEPASISCRSSQSLLDSDDGNTYLDWYLQKPGQSPQLLIYTLSYRASGVPDRFSGSGSGTDFTLKISRVEAEDVGVYYCMQHLEFPLTFGGGTKVEIK
With B22, the “Percent Max Killing” value was 82%.

B23: F21 (antibody, V domains shown)
VH: EVQLVESGGGLVQPGGSLRLSCAASGFTFSSYWMSWVRQAPGKGLEWVANIKQDGSEKYYVDSVKGRFTISRDNAKNSLYLQMNSLRAEDTAVYYCAREWLRFGGLVYWGQGTLVTVSS
VL: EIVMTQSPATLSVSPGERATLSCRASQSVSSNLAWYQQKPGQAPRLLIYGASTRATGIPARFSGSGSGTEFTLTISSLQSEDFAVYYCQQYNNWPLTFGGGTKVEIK
As to B23, the “Percent Max Killing” value is 20%.
